{
  "source": "paper PMC4035259",
  "about": "“Structural Studies of an Anti-Inflammatory Lectin from Canavalia boliviana Seeds in Complex with Dimannosides” (PLoS ONE, 2014)",
  "molecules": {"B1": {"name": "Canavalia boliviana lectin (natural protein, UniProt A0A023GPI8 1-237, looked up)", "chain": "ADTIVAVELDTYPNTDIGDPSYPHIGIDIKSVRSKKTAKWNMQNGKVGTAHIIYNSVGKRLSAVVSYPNGDSATVSYDVDLDNVLPEWVRVGLSATTGLYKETNTILSWSFTSKLKSNSTHETNALHFMFNQFSKDQKDLILQGDATTGRDGNLELTRVSSNGSPQGSSVGRALFYAPVHIWESSAVVASFDATFTFLIKSSDSHPADGIAFFISNIDSSIPSGSTGRLLGLFPDAN", "notes": "Lectin from Canavalia boliviana seeds, 237 amino acids (full-length alpha-chain, 25,572 Da); the preparation is a combination of the alpha-chain and its fragments, beta-chain (residues 1-118) and gamma-chain (residues 119-237); also called Cbol; CboL; source: purified from Canavalia boliviana seeds (according to Moura et al., 2009)"}},
  "key": {"[1]": {"target": "Concanavalin A (Canavalia ensiformis)", "test": "SAXS; in solution, 1, 5 and 10 mg/ml, buffers from pH 3 to pH 9 (JBS Solubility Kit); average molecular weight at each pH from I(0), BSA as size standard; dimer-tetramer equilibrium"}, "[2]": {"target": "the molecule itself", "test": "SAXS; in solution, 1, 5 and 10 mg/ml, buffers from pH 3 to pH 9 (JBS Solubility Kit); average molecular weight at each pH from I(0), BSA as size standard; dimer-tetramer equilibrium"}},
  "data": [
    {"molecule": "Concanavalin A (natural protein)", "values": [
      {"measurement": "stoichiometry N", "setting": "[1]", "result": 4}
    ]},
    {"molecule": "B1", "values": [
      {"measurement": "stoichiometry N", "setting": "[2]", "result": 4}
    ]}
  ]
}
